Experimental data published in publication PMC11228995.
Where “and” joins values, the source holds several entries; their conditions need not be identical. Equal entries are not always repeated.

Tests used:
CXCL4 [1] = experiment: native MS; pure chemokine, 20 μM in 250 mM ammonium acetate buffer, nanoelectrospray, Waters Synapt G2-S, ion mobility separation bypassed
CXCL4 [2] = experiment: native MS; chemokine (20 μM solution in 250 mM ammonium acetate) mixed with fondaparinux at 1:1 molar ratio, nanoelectrospray, spectra deconvoluted in UniDec

Question: With CXCL4 (natural protein) as the substance, how does the stoichiometry N (CXCL4 [1]) read?
Answer: 4

Question: And the stoichiometry N (CXCL4 [2])?
Answer: 4 and 2
